According to patent publication EP1088233B9, “A BIOLUMINESCENCE RESONANCE ENERGY TRANSFER (BRET) SYSTEM AND ITS USE” (PerkinElmer BioSignal Inc., priority 1998, dated 1999):
pEC50: −log10 of the molar value. Like-named read-outs stand apart in the source and are kept apart here. Each block holds one molecule with its values, some of them ahead of it.

Legend:
[1] = Cell viability by trypan blue dye in BRET assay media; type: cell-based; conditions: hamster, cho cells
Description: The effect of the type of media on the luminescence of the Rluc was assayed in absence or in the presence of various amount of DTT. Transfected CHO cells were collected and redistributed in 96 well plate using different media conditions (Figures 24-26). Luminescence timecourses at 470nm (TopCount) were performed at 25°C upon coelenterazine addition. The effects of three different media were assayed: PBS Ca^2+/Mg^2+ (Figure 24), PBS Ca^2+/Mg^2+ + glucose (Figure 25) and DMEM without phenol red (Figure 26).
Similar results were found in presence of 100mM DTT: PBS alone gave higher long term counts. As expected, increasing the concentration of DTT improved Rluc stability in all three media. Unfortunately, high amounts of DTT (50 and 100mM) which gave the best stability, damaged the cells: viability was assayed using trypan blue dye and decreased more than 20% over a period of 2 hours. […] This concentration was chosen for the BRET assays. […] However, DTT is not necessary for the BRET reaction to occur efficiently: as it acts as a boost for the Rluc long term emission.
In order to avoid cell damage during the assay procedure and timecourse experiments, an analysis was conducted to determine whether the use of aprotinin perturbs ratiometric measurements. Aprotinin is a protease inhibitor which is often used during cell culture to maintain cell integrity. […]

[2] = Effect of DTT on BRET ratio in stable cell lines expressing Rluc or Rluc::EYFP (BRETCount); type: cell-based; conditions: DTT 10mM in PBS+Ca2+/Mg2++glucose
Description: PBS=PBS+Ca^2+/Mg^2++glucose. DTT 10mM. […] PBS=PBS+Ca^2+/Mg^2++glucose DTT 10mM.
In PBS (Ca ^2+/Mg^2++glucose) alone, BRET ratios are lower than in presence of DTT. When DTT is added, ratios increase by almost 0.1 BRET unit.

Rluc = biological target: T1, Rluc (Renilla reniformis, UniProt P27652); assay: Rluc luminescence with coelenterazine derivatives in cells transfected with pRluc-CMV (LumiCount); parameters: Normalized RLU: dose or concentration left out as unconfirmed; conditions: for half-life of the reaction (Rluc luminescence): coelenterazine f 1 mM; for Normalized RLU: derivatives, 4 minutes after addition
T1 sequence (P27652 1-311): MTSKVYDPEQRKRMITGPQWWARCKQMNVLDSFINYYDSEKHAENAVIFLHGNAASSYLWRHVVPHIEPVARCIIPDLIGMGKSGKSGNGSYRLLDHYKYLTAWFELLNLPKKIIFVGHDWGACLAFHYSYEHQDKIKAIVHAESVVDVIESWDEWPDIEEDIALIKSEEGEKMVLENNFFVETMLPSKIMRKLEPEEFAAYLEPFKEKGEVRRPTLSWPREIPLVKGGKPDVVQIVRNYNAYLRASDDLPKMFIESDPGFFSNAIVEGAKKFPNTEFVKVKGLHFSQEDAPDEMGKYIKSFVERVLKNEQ
Description: i) Coelenterazine derivatives. […] Cells (HeLa) were transiently transfected inT-75 flask with pRluc-CMV orcontrol vector using LipofectAMINE. At 48 hours post-transfection, cells were harvested and seeded in 96-well white ViewPlate (in duplicate). Coelenterazine derivatives (1 mM) were then added in each well. Luminescence from transfected cells was measured using the LumiCount 4 minutes after addition of coelenterazine derivatives. LumiCount was set at 1100V PMT and 1 sec read length.
Cells (HeLa and CHO) were transiently transfected inT-75 flasks with pRluc-CMV using LipofectAMINE. At 48 hours post-transfection, cells were harvested and seeded in 96-well white ViewPlate at a density of 50 000 cells per wells (in quadruplicate). Coelenterazine f (1 mM) was then added in each well. Luminescence from transfected cells was measured using the LumiCount at different times after addition of coelenterazine. LumiCount was set at 1100V PMT and 0.1 sec read length.

[3] = system: HeLa cells transfected with the apoptosis sensor; assay: Apoptosis sensor (Rluc-caspase-EYFP) BRET assay; type: cell-based; conditions: staurosporine 1mM, 5 hours of apoptosis induction, 10 minutes after coelenterazine h
Text: A BRET apoptosis sensor was engineered by introducing a caspase-3 recognition site in the linker regionof the Rluc-EYFP fusionconstruct. Upon inductionof apoptosis, caspase-3 should recognize and cleave the linker region which should separate Rluc of EYFP and thereby decrease the BRET ratio over time.
pCEP4/Rluc-EYFP and pCEP4/Rluc-caspase-EYFP DNAs were transfected into HeLa cell using LipofectAMINE (BRL/Gibco-Life technologies) in 100mm dishes as described in the manufacturer's protocol. 24 hours post-transfection, transfected cells were harvested and distributed into 96-well microplates (white Optiplate from Packard) at a density of 30,000 cells per well. The following day, cells are induced to undergo apoptosis using staurosporine 1mM dissolved in ISCOVE media (BRL/Gibco-Life technologies) without serum and phenol red at 37°C (total volume here is […]) for 5 hours. […] of BRET buffer (PBS Ca^2+/Mg^2+ + glucose without aprotinin) and […] of coelenterazine h […] is added to start the bioluminescent reaction. Light emissions are detected using the BRETCount (read length sec for each filter, temperature 25°C). Data was collected 10 minutes after addition of coelenterazine h. The assay was done in quadruplicate.
Figure 31 gives representative BRET ratio changes in HeLa cells after 5 hours of apoptosis induction by staurosporine. […]

[4] = biological target: EGF receptors expressed endogenously by GH4-C1 cells; assay: cell-based or functional assay
[5] = biological target: EYFP•KaiB fusion protein (Aequorea victoria; Synechococcus (cyanobacterium)) (UniProt Q79PF5); assay: BRET luminescence spectra, co-expression in E. coli
EYFP•KaiB fusion protein (Aequorea victoria; Synechococcus (cyanobacterium)), sequence (Q79PF5 whole entry, the tested form may be a part): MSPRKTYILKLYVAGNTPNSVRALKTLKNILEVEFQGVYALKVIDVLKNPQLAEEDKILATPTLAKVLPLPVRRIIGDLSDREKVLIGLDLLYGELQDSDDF

[6] = biological target: EYFP•KaiA fusion protein (Aequorea victoria; Synechococcus (cyanobacterium)) (UniProt Q79PF6); assay: BRET imaging of E. coli cultures through 480 and 530 nm filters, cooled-CCD camera
EYFP•KaiA fusion protein (Aequorea victoria; Synechococcus (cyanobacterium)), sequence (Q79PF6 whole entry, the tested form may be a part): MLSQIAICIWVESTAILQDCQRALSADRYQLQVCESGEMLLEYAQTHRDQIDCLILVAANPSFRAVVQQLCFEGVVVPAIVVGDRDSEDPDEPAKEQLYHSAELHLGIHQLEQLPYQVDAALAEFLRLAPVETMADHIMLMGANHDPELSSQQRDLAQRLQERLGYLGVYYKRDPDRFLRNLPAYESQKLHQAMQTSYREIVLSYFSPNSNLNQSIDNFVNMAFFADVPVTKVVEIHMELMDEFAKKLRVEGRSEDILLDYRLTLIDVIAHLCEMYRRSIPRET

[7] = biological target: EYFP•KaiB fusion protein (Aequorea victoria; Synechococcus (cyanobacterium)) (UniProt Q79PF5); assay: as above
[8] = biological target: enhanced yellow fluorescent protein (EYFP) (Aequorea victoria); assay: BRET in co-transfected cells, LumiCount, black microplate, 200 ul, 5 uM coelenterazine, 50,000 cells per well
[9] = biological target: enhanced yellow fluorescent protein (EYFP) (Aequorea victoria); assay: BRET in co-transfected cells, LumiCount, white microplate, 100 ul, 5 uM coelenterazine, 50,000 cells per well
[10] = biological target: enhanced yellow fluorescent protein (EYFP) (Aequorea victoria); assay: BRET in co-transfected cells, LumiCount, white microplate, 200 ul, 5 uM coelenterazine, 50,000 cells per well
calcitonin receptor [11] = biological target: T2, calcitonin receptor (Cricetulus griseus, UniProt G3GXI2); assay: cAMP sensor (CBP:CREB) BRET assay in CHO-K1 cells, endogenous calcitonin receptor; type: cell-based
T2 sequence (G3GXI2 40-539): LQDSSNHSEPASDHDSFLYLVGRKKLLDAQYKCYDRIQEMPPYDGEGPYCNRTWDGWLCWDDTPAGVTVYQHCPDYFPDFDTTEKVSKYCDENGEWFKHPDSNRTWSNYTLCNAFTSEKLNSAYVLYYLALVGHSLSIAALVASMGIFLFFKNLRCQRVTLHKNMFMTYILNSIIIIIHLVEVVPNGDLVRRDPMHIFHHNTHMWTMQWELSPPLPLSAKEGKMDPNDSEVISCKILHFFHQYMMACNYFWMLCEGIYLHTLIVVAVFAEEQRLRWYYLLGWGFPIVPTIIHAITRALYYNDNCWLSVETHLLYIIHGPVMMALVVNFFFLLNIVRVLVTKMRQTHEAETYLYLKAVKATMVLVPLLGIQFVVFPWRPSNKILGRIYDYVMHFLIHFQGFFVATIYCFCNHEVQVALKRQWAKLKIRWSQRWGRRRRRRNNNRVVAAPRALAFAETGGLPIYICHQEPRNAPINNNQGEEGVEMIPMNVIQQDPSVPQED
Description: The pCDNA3./Rluc-CBP-NLS and pCDNA3.1 /EYFP-CREB-NLS DNA constructs were transiently transfected into CHO-K1, CHO-CCRS or CHW-β2 cell lines using LipofectAMINE™ (BRL/Gibco-Life technology, Gaethersburg, MD) using equal amount (4 µg) of DNA for each construct in 100mm dishes.
BRET assay using the transfected cells in suspension. At 48 hours post-transfection, the transfected cells were starved for 2 hours in a mixture of PBS + Ca2 + 1 mM/Mg2 + 0.5mM + glucose 1 g/l +aprotinin 2 µg/ml at 37°C before being harvested, washed with a mixture of PBS Ca2+/Mg2+ + glucose + aprotinin 2 µg/ml and counted. […]
BRET assay using transfected cells attached onto the bottom of the microplate. […] At 48 hours post-transfection, the transfected cells were starved as previously mentioned, washed and then analyzed without being harvested.
The assay conditions for both methods (cell in suspension or attached), cells were in PBS Ca2+ Mg2+ + glucose + aprotinin 2 µg/ml in volume of […]. […] Each well was read using both filters for 1 second each.
The CHO-K1 cells were transfected with both constructs. At 48 hours post-transfection, the cells were starved for 2 hours, washed, harvested and counted. […] The microplate was loaded into the BRETCount and light outputs at 470nm and 550nm were determined at several points to determine a timecourse (fig. 10). […]

calcitonin receptor [12] = biological target: T2, calcitonin receptor; conditions: literature values; read-out: EC50 found in literature for a functional assay; cited from earlier work
[13] = biological target: calcitonin receptor expressed endogenously by CHO-K1 cells; assay: cell-based or functional assay
[14] = biological target: Rluc-caspase-EYFP (apoptosis sensor) (Renilla reniformis; Aequorea victoria) (UniProt P27652); assay: cell-based or functional assay

Molecule: OC(CS)C(O)CS (stereo not shown) [DTT]
cytotoxicity at 2 h, 10000 µM ([1]; DTT 10mM, over 2 hours, read-out: viability loss): < 15%
cytotoxicity at 2 h ([1]; DTT 50 and 100mM, over a period of 2 hours, read-out: viability decrease): > 20%
increase of BRET ratio [2]: ~0.1 BRET unit

Molecule: Oc1ccc(-c2cn3c(O)c(Cc4ccc(F)cc4)nc3c(Cc3ccccc3)n2)cc1 [f, coelenterazine f]
half-life of the reaction (Rluc luminescence) (Rluc; CHO cells): 11 min
half-life of the reaction (Rluc luminescence) (Rluc; HeLa cells): 13 min
Normalized RLU (Rluc; HeLa cells): 180126 RLU

Molecule: Oc1ccc(-c2cn3c(O)c(Cc4ccccc4)nc3c(Cc3ccccc3)n2)cc1 [h, coelenterazine h]
Normalized RLU (Rluc; HeLa cells): 173547 RLU

Molecule: Oc1ccc(-c2cn3c(O)c(Cc4ccccc4)nc3c(CC3CCCC3)n2)cc1 [hcp]
Normalized RLU (Rluc; HeLa cells): 48144 RLU

Molecule: Oc1ccc(Cc2nc3c(Cc4ccccc4)nc(-c4ccc(O)cc4)cn3c2O)cc1 [native, coelenterazine]
Normalized RLU (Rluc; HeLa cells): 2030 RLU

Molecule: CN[C@@H]1C[C@H]2O[C@@](C)([C@@H]1OC)n1c3ccccc3c3c4c(c5c6ccccc6n2c5c31)C(=O)NC4 [staurosporine]
BRET ratio change (decrease) [3]: 0.1 unit

EC50 of the EGF dose response, BRET ratio of the TKR sensor (Rluc-PTB + EYFP-SH2) in GH4-C1 cells at 45 minutes post induction [4]: 0.92 nM
Molecule: EGF (ligand)

share of the RLUC luminescence for which energy transfer occurs [5]: 50%
530/480nm ratio of luminescence [6]: 0.4
530/480nm ratio of luminescence [7]: 0.9
Molecule: RLUC•KaiB fusion protein (from UniProt Q79PF5 1-102)

Ratio 530/480 [8]: 0.76
Ratio 530/480 [9]: 0.9
Ratio 530/480 [10]: 0.87
Molecule: Renilla luciferase (RLUC) (from UniProt P27652 1-311) (enzyme)

Molecule: calcitonin
pEC50 (calcitonin receptor [11]; CHO-K1 transfected with cAMP sensor, attached cells, data point at 45 minutes after addition of coelenterazine): 10.57
BRET ratio over time (calcitonin receptor [11]; calcitonin 2 nM and 10nM, CHO-K1 cells in suspension, compared to buffer alone): Ratios increased over time
pEC50 (calcitonin receptor [12]): 10.22 to 10.52

EC50 of the calcitonin dose response, BRET ratio of the cAMP sensor in attached CHO-K1 cells at 45 minutes [13]: 0.027 nM
Molecule: calcitonin (peptide)

BRET ratio change in HeLa cells after 5 hours of apoptosis induction by staurosporine [14]: 0.1 unit
Molecule: caspase-3 (endogenous in HeLa cells) (from UniProt P42574 29-277) (enzyme)
